The values below come from PMC11041768, “Broad sialic acid usage amongst species D human adenovirus” (npj Viruses, 2023).

Assay [1] concerns the target T1, HAdV-D29 fiber-knob protein (Human adenovirus 29, UniProt E1CIQ3).
T1 construct: gene L5; trimer
The assay can be described thus: X-ray crystal structure of soaked crystal. Format: binding. Particulars: 10 mM soak; conserved apical pocket; mixture of alpha and beta anomers.

Assay [2] concerns the target T2, HAdV-D53 fiber-knob protein (Human adenovirus 53, UniProt E5RWD1).
T2 construct: gene L5; trimer
In words: X-ray crystal structure of briefly soaked crystal. Format: binding. Particulars: 10 mM, very short soak; conserved apical pocket; beta anomer modelled.

For assay [3], the target named is T3, HAdV-D30 fiber-knob protein (Human adenovirus 30, UniProt M0QTV3).
T3 construct: gene L5; trimer
The assay can be described thus: X-ray crystal structure of soaked crystal. In kind it is binding. Conditions: 10 mM soak; conserved apical pocket; mixture of alpha and beta anomers.

Assay [4] concerns the target T4, HAdV-D25 fiber-knob protein (Human adenovirus 25, UniProt M0QUM1).
T4 construct: gene L5; trimer
In words: X-ray crystal structure of soaked crystal. Format: binding. Particulars: 10 mM soak; conserved apical pocket; mixture of alpha and beta anomers.

In assay [5] the target is HAdV-D15 fiber knob protein (human adenovirus D15). The assay can be described thus: crystal structure; apo crystals of recombinant fiber knob protein; Pact Premier Screen, 18 °C, data at 100 K; trimer seen in the structure.
Assay [6] addresses HAdV-D24 fiber knob protein (human adenovirus D24). The assay is described as above.
For assay [7], the target named is HAdV-D29 fiber knob protein (human adenovirus D29). Described as above.
Assay [8] has as its target HAdV-D30 fiber knob protein (human adenovirus D30). The assay is described as above.
Assay [9] addresses HAdV-D32 fiber knob protein (human adenovirus D32). The description is as above.
In assay [10] the target is HAdV-D53 fiber knob protein (human adenovirus D53). Described as above.

`CC(=O)N[C@H]1[C@H]([C@H](O)[C@H](O)CO)OC(O)(C(=O)O)C[C@@H]1O` (mixture of isomers) [sialic acid]: the “X-ray crystal structure of soaked crystal” value in assay [1] is “four structures of HAdV-D25, D29, D30 and D53 in complex with sialic acid”; in assay [3], “four structures of HAdV-D25, D29, D30 and D53 in complex with sialic acid”; in [4], “four structures of HAdV-D25, D29, D30 and D53 in complex with sialic acid”. In assay [2], the “X-ray crystal structure of briefly soaked crystal” value was “short soak allowed only two of four trimers in the asymmetric unit to bind β-sialic acid”.

As usually defined, the stoichiometry N is the number of molecules, sites or subunits per partner or assembly. “HAdV-D15 fiber knob protein (domain or fragment)”: the stoichiometry N in [5] worked out at 3.

On to “HAdV-D24 fiber knob protein (domain or fragment)”, for which, in assay [6], the stoichiometry N was 3.

“HAdV-D29 fiber knob protein (domain or fragment)”: in [7], the stoichiometry N turned out to be 3.

Take “HAdV-D30 fiber knob protein (domain or fragment)”: the stoichiometry N in [8] was 3.

In the case of “HAdV-D32 fiber knob protein (domain or fragment)”, the stoichiometry N in [9] is 3.

Regarding “HAdV-D53 fiber knob protein (domain or fragment)”, the stoichiometry N in assay [10] turned out to be 3.
